The series can be described thus: label from the status in PepcDB records.
As for “MVEHIFKRDGHAEKFQPYKIEDAIKKAFESVNVRYDDRIYTNVILAIESENLNSVECIQDRIELEFFKAGYFAVMKSFMNYRFLHKMQREHIYGLSEDTTYVNSTQSVEEYINKEDWRINANANTGYSNAGLVNNLAGKLIANYWLDKVYSKEEGYAHRNGDVHIHDLDCLTGYCAGWSLRSLLNEGFNGVRGRVESRAPKHLREALGQMANFLGILQSEWAGAQAFSSFDTYLAPYVFRDQLEFKEIKKAIKSFVYNLNVPARWGQSPFTNVTIDWTVPADLKDQIPTRNDRHLFEDIQEDALLVQEAQKRGASSLLSMTYKYFQAEMNLINRAFYEVMTEGDKTGQPFTFPIPTVNITEDFDWHGENTDLLFENTAKIGSSYFQNFIGSQYIRNEKGELVENPEAYKPNAVRSMCCRLQLDLRELLKRGGGLFGSAEMTGSIGVVTLNMARLGYRFRGDREGLMAELTKLMDLSKSTLEKKRQAVTELFHRGLYPYTKRYLPGFNNHFSTIGVNGINEMIRNFTNDQDNISSPSGMAFATEILEFMRERIRSYQEETGNLYNLEATPAEGTTYRFAKEDKKRYPQIIQAGMEENVYYTNSSQLPANFTDDPFEALTLQDELQCKYTGGTVLHLYMREKISSAEACRKLVKTVITSYKLPYITITPVFSVCPKHGYLRGEHEYCPLCDEEALLEIEQSQCC”, the protein production result was “failed”.
Consider “MPSFRITRKVRHSATQMYDLVADIERYPEFLPLCESLRVLRDAEGPNGTTVRVAEMGVGYKAIRERFTTRVSLDRENRKIVAEYIDGPFRHLENRWSFRDAEGGGCEVDFFITYEFKSRTLGLLMGTMFDRAFRKFTDAFEGRATAIYGVPA”, for which the protein production result was “failed”.
With “MNNDNNTILGFDVNLICDFFLNTERQGPGSPEVTLKALSFIDNLTNKSLIADLGCGTGGQTMILAQHVPGKITGIDFFPGFIERFNKNAEKLNLQNRVKGIVGSMDDLSFEKDSLDLIWSEGAIYNIGFERGLKEWRNYLKPGGYLAVSESVWFTDQRPAEIHDFWMSAYTEIDTVPNKVAQIQKAGYIPVATFILPENCWIEHYFAPQAKAEEIFRRKHAGSRIVEELITSNHHEAELYSKYKAYYGYAFFICKKGFSLRR”, the protein production entry was “failed”.
As to “MVDHGMFYSSRMSTLSSNGRGDAYTCKKALHLTLNKPNVVKACSDLKKNEHQISRDFAAETKKKTEFLVLKKNNDERSKTGEVTREKKQSALPLKLSKTPRSGTGEIKQTLKKRGLSKSVPETSRLIKLKKQPPVKVSDKPKSCPVLTKNDTDTLELFEIAKKSADFANAKGILASEVETSMCVDTLTLLLEFPISARDMETRKLMVRLEHLTKHKNRKICNSASKLLQCWRESIREQQLRESRKTQG”, the protein production result is listed as “failed”.
As for “MIPPGAQTPCPAGTRGDEATQLRRFVASVPNRISIGAARGAAPLSALLGLLLLGGAWTLRDHPGPGHEAAALCLLAAAALLMCLACLQRNARSAPFLVLGQGRLRARSLSAPLDLLEVADLRLEDGVWFSAIVLELHGKALPAPSTRPLDPFAARAVSECRDGPRVRLLSPGWRLNGRNLSLLEAAEVIDLYLDIARAQARLRQLGEIPPSASSSLPTPRIFP”, the protein production entry is recorded as “failed”.
To “MSKFKSHNSNNTKQTINKHALIFGLISVFLSGIGFTIISPVIPFLVQPYINNPGNQAIIVTLLTSVYAICMFFSAPGLGALSDKYGRRPVLLVCLLGSSIGYLIFGIGGALWVLFAGRIIDGITGGTISTIFAYFADIIPENERTKYFGWVSAVVGVGTIIGPTLGGLLAKFGYSVPLYFGAIITLLNVVYGFFFMPESLDKNIRLKEITFVRLNPFTQLANLLSIKSLKRLLISAFLLWIPNGSLQAVFSQFTIDTFSWKPAIIGLMFSIMGFQDIISQSLIMPKLLVKLSDKYIAILGMISEVIGYSLIAASALFYFYPLFIAGMFIFGFGDSIFGPSFNGMLSKSVDSSEQGRIQGGSQSIQALARMIGPIIGGQIYVSLGHATPAFMGIVLITVAIPVLYKNIHINI” belongs “failed”; to “MLQSHIMAGNCTVKPARMTRAPYARHELKSTNSGCDESPAALERRVAELLLVADFGAVVGSILDPRQVCEVASSWLGETLGWQMLSVCCHDFSTGTMRGGAGRGRHLSKKRQEGATSTVFIAAAQKGLSDAADVRTIPFPDGSGTLSLSRQSLAESQYSDEFFGGVVENLARSLAAARECDRLKNLSMRDHLTGLYNRRVFEAMLEVEARKRTTKPFSLLLIDLDDFKRVNDTYGHGAGDQVLVAVAKMLRLSFRKSDVVSRYGGEEFGVLLPDTSQDSARVVAERFRQNVATLSLPVNKEKIMPTVSVGIASVTLRLGIEVADVIEEADRALYQAKVTGKNRVCSSLLGENS”, “failed”.
On to “MVIGSGVFLTRTCYLRLQPPSLVLRRRFCAATTACSVPLNGNKKKKSEKEKVIVISGPTGAGKSRLAMELAKRLNGEIISADSVQVYKGLDVGSAKPSDSDRKVVPHHLIDILHPSQDYSVGQFYDDGRQATKDILNRGRVPIVTGGTGLYLRWFMYGKPDVPKPSPEVIAEAHDMLVGFQTEYNWDAAVELVVNAGDPKASSLPRNDWYRLRRSLEILKSTGSPPSSFRIPYDSFRVNLVAPDADDFLEDGSSADISIQNIETDLDYDFLCFFLSSPRVALYRSIDFRCEDMLSGPNGVLSEARWLLDLGLLPNSNPATRAIGYRQAMEYLLQCRRYEGESSPREFYAFLNKFQTASRNFAKRQMTWFRCEPMYHWLNASKPLDSILQCIYDAYESEAEMVEIPESLRMSKDVRDSREASELKGYRSKNRHFVRREDCSSVLEWIRSEGCKSEASCVESAIA”, for which the protein production entry is recorded as “failed”.
Regarding “MKKISIEERPDWRATAEREGFNFHTIDGERYWDERGYYLFTEQQITRDLEAPTQALHQMCMDAVARVVDSEELLHQLAIPPAFFDVIQTSWKQGHPHLYARFDFAYDGTGPAKMYEINADTPTSLMEAGAFQLLWLEEQMARGVLPAHASQFNSIAEDLVRAFAEFPGASPFYFAAMSGSVEDRVTTDFLRRMAAHVGIDARHIDIEDIGLNDQGRFVDLDGRWIERLFKLHAWEHIFHEAFGKNVTASGTQFVEPAWKAILSNKGILPLLWQFNEGHPNLLPSRVDQDVTKPVPKGWVRKPYFSREGANIEMRTPGDQVIAVDGPYTDAPYILQAYSPLPKFGDSYTLIGSWVIGDLASGIGIREDDSLITKDTSRFLPHVVID”, the protein production entry was “failed”.
Take “MSNELPAVICLVGPTGAGKTAAALHLAERFAGTVINADSRQVYRDFPIITAQPTAEEQAQCPHRLYGFLETEARMSAGVWGDHATAAIDEALAQGRLPLLVGGTGMYVRALLDGIAAIPAIPRDIHVRWQERCAAEGPQRLHAMLCDIDAEYAARIHPNDRQRVTRALEVHEHTGRTFSEWHRSAMPAPRYRALRIGFAATLDALTPRLAHRIDLMLAAGALDEARRARVHCDDPSAPGWSGIGCAETYAHLVGSLDYEAMRHVWLHNTRAYAKRQLTWFRADTRLTWYAPDDVEGIALGVASFLRGGA”: the protein production entry is “failed”.
Take “MVSRTGRTHLPLVDSLKEKLPYILCGLLALAGVLLVWSLGSTFLPVLLALILAYVLNPLVTWLEARRVPRVAAVLLVMALIVVVTAGAVTFFAVSIQKEVARVEINLPAYATRLYDLIPGQAKAYLEIETPDKLYARIDSLVDELRGASFDLVKGALGVVQRAFSSTLGFLLTVAGYFITPVYLYYFLADLPRLRDGIMALVPGRARDRAAMLGSEIDGVLSGFVRGQLAVCAILAVLYSIGLVMIGIDLAIVIGSLSGFLFIIPYVGTVFGIVVSMIMAFLKFHDMLHPLLCLGWFAIVQAIEGALITPAVVGNTVGLHPVVAILALFIGGQWFGIFGMLLAVPVAAVIKVLLRHGVEWYRATPFFERP”: the protein production entry was “failed”.
For “MALKATIYKATVNVADLDRNQFLDASLTLARHPSETQERMMLRLLAWLKYADERLQFTRGLCADDEPEAWLRNDHLGIDLWIELGLPDERRIKKACTQAAEVALFTYNSRAAQIWWQQNQSKCVQFANLSVWYLDDEQLAKVSAFADRTMTLQATIQDGVIWLSDDKNNLEVNLTAWQQPS”, the protein production entry is “not failed”.
To “MADAPDTERQAVEPEAGDVLSVSQLNDRIASVVEDAPALDGVRCIGEVTDLHQNSTALYFTLTDGDAELPCMIWANRYRKMDAELEDGTEVILEGDIDYWTEGGKIDLKPWEVIVVGDGDQAAAVERLRSELEERGWFDDEQKQRPPAFPERVGVVTSLRGDARYDIQSAIHEQDPTVDILVKDATVQGSEAPTSIANGIHHLDRSEDVDSIIVGRGGGSDSNLQAFNTERVAEAIFTANTPIVTAIGHTDDRLIADRVADMAAITPTAAGEYIAKSRNDFLASDIGPLEQQLEAAYETFEQEHEHEQELAEAVEEATAPEGLSPVYYKVAIVVLLVLLLLITALWLGVI” belongs “failed”; to “MQDAFEVALPLFLIMDPVGNAAASLAILREHTPSRQRAIIRRELVFALAIVLLFHFLGDALLGLLDIEQSTLRLSGGIILFIIAMKMVFPPAQENDPEAVTRDPFIVPIAVPLIAGPSLLAAVMVYARQAQAGMMGQASVLGGVLMAWGATALIMAFTPDLARILGPRAMRAMERLMGLILILMAVQMLENGIRIFVQSL”, “failed”.
Turning to “MDFLARATAIVGNTMVLMRRFGSPGTQAIGQSPAIPEAQKQGIMTLKMPAAKGWAPGHLPTPAPGLKVNAFARDLEHPRWIEVLPSGDVLVAEARQLPTPPKTLLDRAAQATMRRIRALGDSPNRITLLRDPDGRGEAQERETFLENQSQPFGMALVGDTFYVGNTDGIMAFPYRPGATRLEGPGRRLTTFKPGGHWTRSLIVSPDGRRIYAGVGSLSNIGDDGMEAEEGRAAIWELDLASGQARIYASGLRNPVGLAWEPTTRVLWTVVNERDGLGDETPPDYLTSVEEDGFYGWPYCYWNRIVDDRVPQDPAMVARAITPDYALGGHTASLGLCWVPAGTLPGFGDGMAIGQHGSWNRSKLSGYRLIFVPFANGRPSGPPRDILTGFLSDDEKLAYGRPVGVAVGPDRRSLLLADDVGDVIWRVTGALEHHHHHH”, the protein production result is listed as “failed”.
As for “MLKILATQFNGKLQTLTKQEDELFDVVRLLAQALVGQGKVYLDAYGEFEGLYPMLSDGPDQMKRVTKIKDHKTLHAVDRVLIFTPDTERSDLLASLARYDAWHTPYSIITLGDVTETLERSIAPLALKFDKGLLPAEDGSRHGLPSLALGAFLLTHILTQLQEMTEEWE”, the protein production result is “not failed”.
In the case of “MNPLARFLALAGFTVALASCQMFTPPEVQESGFQPSDRPITVDNVGANNKLAELAKAQHPRILATYGGEYSDPKLERMVAKVVGNLTVVSANPTQTYRITILNSPNVNAFALPGGYLYITRGLLALANDSSELAAVIAHEMGHVTANHGLQRQQLEAEEGLATKVVSDVLGDSPTAKAALIRGKLRLAQFSRNQELEADAIGIKSIGEAGYDPYAAGRFLQSMSAYTDFRSISGATDASLDFLATHPNTPQRIDLAQRHARQFGAPGVGTRDRDSFLAGIDGLLYGDTPEEGYVRGETFLHPGLGVSFTVPDGFIIDNSAAAVTATGPGDIAIRFDGVSIDKNRALTDYIRSGWVAGLDDSTVKQETINGNEAATAHAGAEGWQFDIAVIRAGGQVYRLLTAAPSASTSLETVARSVSGSFRVLSAAEKAALKPLHIRVLTVQPGQTMGSLAAQMVGVDRKLDLFRVLNALSPGAAVSAGDKVKIVTDK”, the protein production entry is recorded as “failed”.
In the case of “KIIHIDCDCFYAALEMRDDPSLRGKALAVGGSPDKRGVVATCSYEARAYGVRSAMAMRTALKLCPDLLVVRPRFDVYRAVSKQIHAIFRDYTDLIEPLSLDEAYLDVSASPHFAGSATRIAQDIRRRVAEELHITVSAGVAPNKFLAKIASDWRKPDGLFVITPEQVDGFVAELPVAKLHGVGKVTAERLARMGIRTCADLRQGSKLSLVREFGSFGERLWGLAHGIDERPVEVDSRRQSVSVECTFDRDLPDLAACLEELPTLLEELDGRLQRLDGSYRPDKPFVKLKFHDFTQTTVEQSGAGRDLESYRQLLGQAFARGNRPVRLIGVGVRLLDLQGAHEQLR”, the protein production entry is “failed”.
Regarding “MGKSIPVKTGLRGASAAVAGFIKSSKPIRPISSMDSSDKDSSSTTTTSETTRRFVPLSSVVSDCAKRWFKDTLEEAKAGNITMQVLLGQMYYSGYGVPKDARKVSSLFPPFQSLLFQVLGYNASDSDSESD”, the protein production entry was “failed”.
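Further: failed if final PepcDB status was selected cloned or expressed and not failed if soluble or beyond.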
